Reference: patent US20220127569A1, “METHODS OF PROMOTING THYMIC EPITHELIAL CELL AND THYMIC EPITHELIAL CELL PROGENITOR DIFFERENTIATION OF PLURIPOTENT STEM CELLS, RESULTING CELLS, AND USES THEREOF” (THE TRUSTEES OF COLUMBIA UNIVERSITY IN THE CITY OF NEW YORK, priority 2019, published 2022)

Columns and labels:
NSG mice = assay: Teratoma formation after hES-TEP transplantation in mice; format: in vivo, mouse; conditions: mice grafted with day 30 hES-TEPs treated with YM155
Method: Six to ten week old NSG mice were thymectomized as described (Khosravi-Maharlooei et al. 2020) and allowed to recover for at least 3 weeks. After recovery, animals were conditioned with 1.8 Gy total body irradiation (TBI) via X-rays. Cryopreserved fetal swine thymus (60-90 days gestation) was thawed in Medium 199 supplemented with DNAse, gentamicin and HEPES as above. Fetal swine fragments (1-2 mm^3) were injected or not with 2×10^5 hES-derived TEPs with a 28 gauge syringe and coated with 50% matrigel (Corning) in Medium 199. Four to 24 hours after TBI, 1-2×10^6 hES-derived TEPs mixed with 1-2×10^6 thymic mesenchymal cells, 1-2×10^6 thymic mesenchymal cells alone, fetal swine thymus injected with hES-TEPs or fetal swine thymus alone were implanted beneath the kidney capsule and 2×10^5 fetal human CD34+ cells were injected intravenously. Peripheral human immune reconstitution was assayed every 2-3 weeks post-grafting after full recovery as indicated. Blood was collected from the tail vein and immune populations enriched by density gradient centrifugation with Ficoll as described above. […] Gene correlations were evaluated with Pearson Correlation Coefficient with p<0.05 considered significant, linear regression was also performed and r-square determined. Euthanasia due to teratoma growth was plotted on a Kaplan-Meyer plot and analyzed by Mantel Cox Log-rank test to determine p-value. […]

pluripotent cells = assay: OCT4 expression (qPCR) in day 30 hES-TEP cultures after survivin inhibitor treatment; format: cell-based, human; conditions: YM155 20 nM in the final 24 hours of culture, protocol #4c vs #4c+YM155
Method: After 108 hours in total on low-adherence plates with endoderm induction media (described above), embryoid bodies were collected and, without being trypsinized, plated on matrigel-coated, 24-well tissue culture plates (approximately 50,000-70,000 cells/well) in SFD medium supplemented with 200 ng/mL recombinant human (rh) Noggin and 10 μM SB431542 (NS) (as described in established protocols Green et al. 2011), with Retinoic Acid (0.25 μM) and FGF8b 50 ng/mL (as a novel modification of this protocol) for 48 hours. […]
(§1) Quantitative Real-Time PCR Total RNA from clusters of ES cells differentiated for the indicated time with the indicated culture method was extracted using Trizol (Invitrogen), and Direct-zol RNA Miniprep Kit (Zymo Research) according to the manufacturer's instructions. […] Real-time quantitative PCR was performed in 20 ul volume using ABI Power SYBR Green PCR Master Mix on an ABI ViiA7 Thermocycler (Applied Biosystems Life Technologies). […] Quantification of each gene transcript was obtained by comparing the average of triplicate experimental CT values to a standard curve of serially diluted genomic DNA for each primer target and then normalized by dividing by the CT housekeeping gene b-Actin.

ESCs = assay: Flow cytometry / efficiency of definitive endoderm and anterior foregut endoderm induction; format: cell-based, human; conditions: day 4.5 dissociated embryoid bodies
Method: The differentiation was performed as described Huang et al. 2014 in serum-free differentiation (SFD) medium consisting of DMEM/F12 (3:1) (Life Technologies) supplemented with N2 [Gibco (Life Technologies)], B27 (Gibco), ascorbic acid (50 μg/ml, Sigma), Glutamax (2 mM, Life Technologies), monothioglycerol (0.4 μM, Sigma), 0.05% bovine serum albumin (BSA) (Life Technologies) and 1% penicillin-streptomycin (Thermo Fisher Scientific, Waltham, Mass.). Cells were then briefly trypsinized (0.05%, 1 min at 37° C.) into single cell suspension and plated onto low attachment 6-well plates [Costar 2 (Corning Incorporated, Tewksbury Mass.)] to form embryoid bodies in serum-free differentiation medium containing human BMP4, 0.5 ng/ml, human bFGF, 2.5 ng/ml (R&D Systems) and human activin A, 100 ng/ml (R&D Systems) for 84 hours (3.5 days approximately) on low-adherence plates. Embryoid bodies were then collected, briefly trypsinized (0.05%, 1 min at 37° C.) into 3-10 small cell clumps and resuspended again in endoderm induction medium for another 24 hours. Cells were fed every 24-48 hr (depending on the density) and maintained in a 5% CO2/5% O2/90% N2 environment. […]
Human immune reconstitution and differentiation efficiency of hES-TEP cultures were determined by multi-parametric flow cytometry. […]

hESCs = assay: qPCR gene expression (PAX9, FOXN1) in hESC-derived TEP cultures up to day 30; format: cell-based, human
Method: After 108 hours in total on low-adherence plates with endoderm induction media (described above), embryoid bodies were collected and, without being trypsinized, plated on matrigel-coated, 24-well tissue culture plates (approximately 50,000-70,000 cells/well) in SFD medium supplemented with 200 ng/mL recombinant human (rh) Noggin and 10 μM SB431542 (NS) (as described in established protocols Green et al. 2011), with Retinoic Acid (0.25 μM) and FGF8b 50 ng/mL (as a novel modification of this protocol) for 48 hours. For pharyngeal endoderm, the resulting cells were then treated for 24 hours with FGF8b (50 ng/mL) and Retinoic Acid ([…]) followed by 8 days with FGF8b (50 ng/mL) and Sonic Hedgehog (Shh) (100 ng/mL) (FIG. 1B). For the 3rd pharyngeal pouch specification, cells were then exposed to rhNoggin (200 ng/mL) for 6 days, and then to BMP4 (10 ng/mL) until day 30 of differentiation (FIG. 2A). To avoid the formation of teratomas after engrafting in mice, cells were also exposed to survivin inhibitor YM155 (20 nM) (Lee et al. 2013)) for 24 hours during the last step in the later experiments (FIG. 4A). During the entire process, cell cultures were maintained in a 5% C02/air environment at 37° C. Cells were fed every 24 hours.
as §1, with “instructions. NanoDrop 2000 spectrophotometer (ThermoFisher Scientific) was used to determine RNA concentration.” for “instructions.”

For `COCCn1c2c([n+](Cc3cnccn3)c1C)C(=O)c1ccccc1C2=O` [YM155], the animals developing teratomas (NSG mice) was 3 of 15 and the OCT4 expression (pluripotent cells) was “significantly reduced”.

B1: Activin A: human activin A used in endoderm induction medium (protein, UniProt P08476 311-426, looked up)
Inhibin beta A chain: GLECDGKVNICCKKQFFVSFKDIGWNDWIIAPSGYHANYCEGECPSHIAGTSGSSLSFHSTVINHYRMRGHSPFANLKSCCVPTKLRPMSMLYYDDGQNIIKKDIQNMIVEECGCS
In the case of B1, the “co-expression of endoderm markers EpCAM and CXCR4, cells” value (ESCs) is reported as 98.3%.

B2: BMP4: human Bone Morphogenic Protein 4 (protein, UniProt P12644 293-408, looked up)
Bone morphogenetic protein 4: SPKHHSQRARKKNKNCRRHSLYVDFSDVGWNDWIVAPPGYQAFYCHGDCPFPLADHLNSTNHAIVQTLVNSVNSSIPKACCVPTELSAISMLYLDEYDKVVLKNYQEMVVEGCGCR
In the case of B2, the “expression of FoxN1” value (hESCs; BMP4 added to day 15 cultures without prior Noggin, assayed at culture day 22 and 30, protocols #3b and #4b) is reported as “failed to induce expression” and the “FOXN1 expression day 30 vs day 21” value (hESCs; protocol #4c, before and after BMP4 exposure) is reported as “significantly higher”.

B3: Noggin: recombinant human Noggin, a BMP4 antagonist and/or inhibitor (protein, UniProt Q13253 28-232, looked up)
Noggin: QHYLHIRPAPSDNLPLVDLIEHPDPIFDPKEKDLNETLLRSLLGGHYDPGFMATSPPEDRPGGGGGAAGGAEDLAELDQLLRQRPSGAMPSEIKGLEFSEGLAQGKKQRLSKKLRRKLQMWLWSQTFCPVLYAWNDLGSRFWPRYVKVGSCFSKRSCSVPEGMVCKPSKSVHLTVLRWRCQRRGGQRCGWIPIQYPIISECKCSC
B3 was tested, and the PAX9 expression (hESCs; Noggin from day 16 to day 22, protocols #3c and #4c vs #3b and #4b, day 30) was “significantly increased”.
